Tests used:
[1] = biological target: 6His-GtrS^LBD, the N-terminal 6His-tagged ligand-binding domain of GtrS (residues 29-199) (P. aeruginosa PAO1) (UniProt Q9HZ47); test: SPR; OpenSPR localized SPR; 6His-GtrS^LBD fixed on COOH chip by capture-coupling; 6His-GltB injected at 1000, 500, 250, 125 nM; 50 mM Tris, 50 mM NaCl, pH 7.0, 25 °C; one to one model
[2] = biological target: 6His-GltB, the N-terminal 6His-tagged GltB (P. aeruginosa PAO1); test: SPR; OpenSPR localized SPR; 6His-GltB fixed on COOH chip by capture-coupling; 6His-PctA^LBD (1500-500 nM) or 6His-PA2788^LBD (500-100 nM) injected; 50 mM Tris, 50 mM NaCl, pH 7.0, 25 °C; one to one model
[3] = biological target: T1, GltB (periplasmic glucose-binding protein) (Pseudomonas aeruginosa, UniProt Q9HZ48); test: ITC ([…] °C, one-site model); supported by concentration-dependent thermal shift
T1 construct: gene PA3190; 6His-GltB, the N-terminal 6His-tagged GltB

Molecule | Kd [2] [µM] | other results
6His-GltB, the N-terminal 6His-tagged GltB (natural protein) |  | Kd [1]: 0.1 µM
6His-PctA^LBD, the N-terminal 6His-tagged ligand-binding domain of PctA (residues 30-278) (from UniProt G3XD24 30-278) (domain or fragment) | 0.8 | 
OC[C@H]1OC(O)[C@H](O)[C@@H](O)[C@@H]1O (stereo partly shown) [glucose] |  | Kd [3]: 1.37 µM
6His-PA2788^LBD, the N-terminal 6His-tagged ligand-binding domain of PA2788 (residues 44-179) (domain or fragment) YLSMSISPETINVAGAQRMLSQKMAREALQLRLGAGDPKALAATIAQYERSAADLDAGNAERNVSRMGAPEIAAQRQKVAQIWGRYRAMLDQVAQPASQVDLRGFSQYSTELLGELNNLVSLMSARADSVQHTQMW | 0.4 | 
